This is an account of results in paper PMC7763846.

This experiment deals with T1, recombinant mouse TNF-α (mouse), P06804.
T1 chain: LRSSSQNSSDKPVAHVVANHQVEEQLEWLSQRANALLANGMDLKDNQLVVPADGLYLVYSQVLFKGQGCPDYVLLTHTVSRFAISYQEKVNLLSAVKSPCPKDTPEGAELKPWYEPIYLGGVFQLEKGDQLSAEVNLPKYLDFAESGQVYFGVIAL
In words: cross-linking; 100 ng recombinant TNF-α incubated 1 h at 37 °C with different concentrations of DMSO (or without: cross-linked control), cross-linked with 4.8 mM BS3 for 30 min at room temperature, stopped with 1/10 volume 1 M Tris-HCl pH 7.5; SDS-PAGE and Western blot with anti-TNF-α antibody. Particulars: remark: other sources report otherwise.

B1: recombinant mouse TNF-α, P06804 80-235 (ligand)
chain: LRSSSQNSSDKPVAHVVANHQVEEQLEWLSQRANALLANGMDLKDNQLVVPADGLYLVYSQVLFKGQGCPDYVLLTHTVSRFAISYQEKVNLLSAVKSPCPKDTPEGAELKPWYEPIYLGGVFQLEKGDQLSAEVNLPKYLDFAESGQVYFGVIAL
Take B1: the stoichiometry N is 3.
